Target: recombinant nucleoprotein derived from influenza virus subtype A H1N1 (Sino Biological, 40205-[change]) (influenza virus subtype A H1N1)

B1: VHH antibody consisting of the amino acid sequence represented by SEQ ID NO: 08 (VHH)
VHH: EVQLVESGGGLVQAGDSLRLSCAASGRTFINLDMGWFRQPPGKEREYVAAITRNGAITSYADSAKGRFTISRDNAKNTVSLEMNSLKPEDTGVYYCAAYSISNYGSGWYKPDYWGQGAQVTVSS
In the case of B1, the EC50 (read off the curve) is reported as 0.2 µg/mL.

Source: patent publication US20170349646A1
